The experiment deals with recombinant Bfl-1 protein (UniProt Q16548). The experiment is described as follows: fluorescence polarisation; direct binding of the fluorescent Bid probe to recombinant protein; Ex 485 nm, Em 530 nm, room temperature; buffer of the Kd determination not told apart from the two competitive assay buffers.

Our source for the Kd values is article PMC6033896, “Discovery of Mcl-1 inhibitors from integrated high throughput and virtual screening” (Scientific Reports, 2018).

Sequence of recombinant Bfl-1 protein (Q16548 whole entry): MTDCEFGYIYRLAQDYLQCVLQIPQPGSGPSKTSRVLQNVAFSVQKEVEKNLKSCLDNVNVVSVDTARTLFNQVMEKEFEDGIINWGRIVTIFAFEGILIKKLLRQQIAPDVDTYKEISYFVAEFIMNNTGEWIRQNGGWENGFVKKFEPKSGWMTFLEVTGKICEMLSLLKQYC

As for fluorescent labelled Bid BH3 peptide, the Kd – broadly, the constant that tells how readily two partners part at equilibrium – is 0.3 nM.
